Laboratory results from article PMC11168923 (Nature, 2024).

B1: FLVCR1 (FLVCR1a) (Homo sapiens) (protein)
chain: MARPDDEEGAAVAPGHPLAKGYLPLPRGAPVGKESVELQNGPKAGTFPVNGAPRDSLAAASGVLGGPQTPLAPEEETQARLLPAGAGAETPGAESSPLPLTALSPRRFVVLLIFSLYSLVNAFQWIQYSIISNVFEGFYGVTLLHIDWLSMVYMLAYVPLIFPATWLLDTRGLRLTALLGSGLNCLGAWIKCGSVQQHLFWVTMLGQCLCSVAQVFILGLPSRIASVWFGPKEVSTACATAVLGNQLGTAVGFLLPPVLVPNTQNDTNLLACNISTMFYGTSAVATLLFILTAIAFKEKPRYPPSQAQAALQDSPPEEYSYKKSIRNLFKNIPFVLLLITYGIMTGAFYSVSTLLNQMILTYYEGEEVNAGRIGLTLVVAGMVGSILCGLWLDYTKTYKQTTLIVYILSFIGMVIFTFTLDLRYIIIVFVTGGVLGFFMTGYLPLGFEFAVEITYPESEGTSSGLLNASAQIFGILFTLAQGKLTSDYGPKAGNIFLCVWMFIGIILTALIKSDLRRHNINIGITNVDVKAIPADSPTDQEPKTVMLSKQSESAI
notes: full length; transport: pcDNA3.1 in HEK293 with CHKA or ETNK1; structures and fluorescence: C-terminal FLAG tag, Flp-In T-REx293, LMNG
B2: FLVCR2 (Homo sapiens) (protein)
chain: MVNEGPNQEESDDTPVPESALQADPSVSVHPSVSVHPSVSINPSVSVHPSSSAHPSALAQPSGLAHPSSSGPEDLSVIKVSRRRWAVVLVFSCYSMCNSFQWIQYGSINNIFMHFYGVSAFAIDWLSMCYMLTYIPLLLPVAWLLEKFGLRTIALTGSALNCLGAWVKLGSLKPHLFPVTVVGQLICSVAQVFILGMPSRIASVWFGANEVSTACSVAVFGNQLGIAIGFLVPPVLVPNIEDRDELAYHISIMFYIIGGVATLLLILVIIVFKEKPKYPPSRAQSLSYALTSPDASYLGSIARLFKNLNFVLLVITYGLNAGAFYALSTLLNRMVIWHYPGEEVNAGRIGLTIVIAGMLGAVISGIWLDRSKTYKETTLVVYIMTLVGMVVYTFTLNLGHLWVVFITAGTMGFFMTGYLPLGFEFAVELTYPESEGISSGLLNISAQVFGIIFTISQGQIIDNYGTKPGNIFLCVFLTLGAALTAFIKADLRRQKANKETLENKLQEEEEESNTSKVPTAVSEDHL
notes: as for B1

Assays:
FLVCR2 = target: T1, FLVCR2 (Homo sapiens, UniProt Q9UPI3); test: intrinsic tryptophan fluorescence shift (F350/F330); type: binding; details: 0.5 µM protein; LMNG; pH 7.4; room temperature
T1 construct: full length; transport: pcDNA3.1 in HEK293 with CHKA or ETNK1; structures and fluorescence: C-terminal FLAG tag, Flp-In T-REx293, LMNG
T1 sequence (Q9UPI3 1-526): B2 chain

FLVCR1 (FLVCR1a) = target: T2, FLVCR1 (FLVCR1a) (Homo sapiens, UniProt Q9Y5Y0); test: as above; type: binding; details: 0.5 µM protein; LMNG; pH 7.4; room temperature
T2 construct: full length; transport: pcDNA3.1 in HEK293 with CHKA or ETNK1; structures and fluorescence: C-terminal FLAG tag, Flp-In T-REx293, LMNG
T2 sequence (Q9Y5Y0 1-555): B1 chain

[1] = substrate: C[N+](C)(C)CCO; test: radioligand uptake dose curve in HEK293 cells; type: cell-based, Homo sapiens; details: CHKA co-expressed, DMEM, 37 °C, 1 h, labelled compound
[2] = substrate: NCCO; test: radioligand uptake dose curve in HEK293 cells; type: cell-based, Homo sapiens; details: ETNK1 co-expressed, DMEM, 37 °C, 1 h, labelled compound

Molecule	shift of F350/F330 (FLVCR2)	shift of F350/F330 (FLVCR1 (FLVCR1a))	Km [1] [µM]	Km [2] [µM]
C[N+](C)(C)CCO [choline]	Shifts of tryptophan fluorescence of FLVCR1 and FLVCR2 in the presence of choline or betaine	Shifts of tryptophan fluorescence of FLVCR1 and FLVCR2 in the presence of choline or betaine	–	–
B1	–	–	47.4 ± 9.8	8 ± 1.5
B2	–	–	64.0 ± 21.0	41.5 ± 32.0
